Data from paper PMC5454376, “Molecular mechanism of Gαi activation by non-GPCR proteins with a Gα-Binding and Activating motif” (Nature Communications, 2017).

B1: Ric-8A: non-receptor GEF used as control (protein)
chain: TGEEDAVTEALRSFNREHSQSFTFDDAQQEDRKRLAKLLVSVLEQGLSPKHRVTWLQTIRILSRDRSCLDSFASRQSLHALACYADIAISEEPIPQPPDMDVLLESLKCLCNLVLSSPTAQMLAAEARLVVRLAERVGLYRKRSYPHEVQFFDLRLLFLLTALRTDVRQQLFQELHGVRLLTDALELTLGVAPKENPLVILPAQETERAMEILKVLFNITYDSVKREVDEEDAALYRYLGTLLRHCVMADAAGDRTEEFHGHTVNLLGNLPLKCLDVLLALELHEGSLEFMGVNMDVINALLAFLEKRLHQTHRLKECVAPVLSVLTECARMHRPARKFLKAQVLPPLRDVRTRPEVGDLLRNKLVRLMTHLDTDVKRVAAEFLFVLCSESVPRFIKYTGYGNAAGLLAARGLMAGGRPEGQYSEDEDTDTEEYREAKASINPVTGRVEEKPPNPMEGMTEEQKEHEAMKLVNMFDKLSR
modifications: left off: GST, end not stated, kept
notes: non-receptor GEF used as control
B2: CALNUC: GBA motif protein with calcium-binding EF hands (protein, UniProt Q02818 27-461, looked up)
Nucleobindin-1: VPLERGAPNKEETPATESPDTGLYYHRYLQEVIDVLETDGHFREKLQAANAEDIKSGKLSRELDFVSHHVRTKLDELKRQEVSRLRMLLKAKMDAEQDPNVQVDHLNLLKQFEHLDPQNQHTFEARDLELLIQTATRDLAQYDAAHHEEFKRYEMLKEHERRRYLESLGEEQRKEAERKLEEQQRRHREHPKVNVPGSQAQLKEVWEELDGLDPNRFNPKTFFILHDINSDGVLDEQELEALFTKELEKVYDPKNEEDDMREMEEERLRMREHVMKNVDTNQDRLVTLEEFLASTQRKEFGDTGEGWETVEMHPAYTEEELRRFEEELAAREAELNAKAQRLSQETEALGRSQGRLEAQKRELQQAVLHMEQRKQQQQQQQGHKAPAAHPEGQLKFHPDTDDVPVPAPAGDQKEVDTSEKKLLERLPEVEVPQHL
B3: GAIP: GAIP (also known as RGS19), a GAP used as control (protein)
chain: MPTPHEAEKQITGPEEADRPPSMSSHDTASPAAPSRNPCCLCWCCCCSCSWNQERRRAWQASRESKLQPLPSCEVCATPSPEEVQSWAQSFDKLMHSPAGRSVFRAFLRTEYSEENMLFWLACEELKAEANQHVVDEKARLIYEDYVSILSPKEVSLDSRVREGINKKMQEPSAHTFDDAQLQIYTLMHRDSYPRFLSSPTYRALLLQGPSQSSSEA
modifications: left off: GST, end not stated, kept
notes: GAIP (also known as RGS19), a GAP used as control

Assays:
[1] = system: Gαi3-[GDP]; experiment: Pull-down, GDP-loaded Gαi3; assay type: binding, rat; conditions: GST fusion on glutathione-agarose, 100 μM GDP, 4 °C, pH 8.1, immunoblot
Experimental: (§1) Preparation of nucleotide-free Gαi3 and pull-down assay
(§2) His-tagged rat Gαi3 cloned in a pET28b vector was purified from BL21(DE3) bacteria (Life Technologies) after isopropyl-[beta]-D-thiogalactoside (IPTG) induction. Nucleotide-free Gαi3 was prepared by promoting nucleotide release with high concentrations of ammonium sulfate in the presence of glycerol. For this, His-Gαi3 was run through a Superdex S75 column equilibrated with 20 mM Tris-HCl (pH 7.4), 20 mM NaCl, 1 mM MgCl2, 1 mM dithiothreitol (DTT), 10 μM GDP and 5% (v/v) glycerol. A volume of 200 μl of His-Gαi3 at ∼5 μM were loaded on a Sephadex G-25 column (10 ml) equilibrated with 1 M ammonium sulfate, 20% (v:v) glycerol (pH 6) and the protein eluted at room temperature with the same buffer. Protein-containing fractions were pooled (∼400–600 μl) and incubated overnight at 4 °C. […] After transfer to polyvinylidene difluoride (PVDF) membranes, GST-fused proteins were visualized by Ponceau S staining and His-Gαi3 detected by immunoblotting with mouse anti-polyHis-Tag primary antibodies (1:2,500, Sigma, H1029) and goat anti-mouse IRDye 800F(ab′)2 secondary antibodies (1:10,000, Li-Cor) using an Odyssey Infrared Imaging System (Li-Cor Biosciences). […]

[2] = system: Gαi3-[ ]; experiment: Pull-down, nucleotide-free Gαi3; assay type: binding, rat; conditions: GST fusion on glutathione-agarose (GIV 1,671–1,755; Ric-8A 12–491), 4 °C, pH 8.1, immunoblot
Experimental: as §1, §2

[3] = system: Gα; conditions: cited from earlier work
Text: GBA proteins also differ from the non-receptor GEF Ric-8A. Although both Ric-8A and GBA proteins activate monomeric Gα instead of Gαβγ trimers, removal of the C terminus of Gα only abrogates Ric-8A action. This indicates a different mode of G-protein binding for Ric-8A that resembles how GPCR bind. […] We are confident about the similarity on which the model was built because of several lines of evidence presented in this manuscript and in previously published work. […] Second, sequence similarity with the KB-752 and rudimentary modeling allowed us to identify residues in the GBA motif of GIV ...

[4] = system: Gαi3 N269D; experiment: Co-immunoprecipitation in HEK293T cells, Gαi3 N269D versus WT; assay type: binding; conditions: HEK293T lysates, FLAG-tagged Gαi3 N269D vs WT; GST-Ric-8A 1 μg added
Experimental: HEK293T cells (American Type Culture Collection) were grown at 37 °C in DMEM supplemented with 10% FBS, 100 U ml^−1 penicillin, 100 μg ml^−1 streptomycin, 1% L-glutamine and 5% CO2. DNA plasmids encoding for C-terminally 3xFLAG-tagged Gαi3 (ref. [25]) or an empty plasmid (p3xFLAG-CMV-14) were transfected using the calcium phosphate method in 10 cm dishes. The DNA amount for the Gαi3 N269D plasmid was threefold (12 μg) of that for Gαi3 WT (4 μg) to equalize their expression levels. Cells were collected 48 h after transfection by gently scrapping in PBS, centrifuged and resuspended in 1 ml of lysis buffer (20 mM HEPES (pH 7.2), 5 mM Mg(CH3COO)2, 125 mM K(CH3COO), 0.4% (v:v) Triton X-100, 1 mM DTT, 10 mM β-glycerophosphate and 0.5 mM Na3VO4 supplemented with a protease inhibitor cocktail (Sigma; catalogue #S8830)) and cleared (14,000g for 10 min) before use. Lysates were supplemented with 1 μg of purified GST-Ric-8A (12–491)[22] and 2 μg of mouse anti-FLAG antibody (Sigma F1804), and incubated for 4 h at 4 °C with rotation. BSA-blocked Protein G agarose beads (Thermo-Scientific) were added and tubes incubated for additional 90 min at 4 °C. Beads were washed four times (4.3 mM Na2HPO4, 1.4 mM KH2PO4, pH 7.4, 137 mM NaCl, 2.7 mM KCl, 0.1% (v/v) Tween 20, 10 mm MgCl2, 5 mm EDTA and 1 mm DTT) and immunoprecipitated proteins eluted by boiling in Laemmli sample buffer. […]

[5] = system: Gαi3-[GTP]; experiment: Pull-down, GDP/AlF4^−-loaded Gαi3; assay type: binding, rat; conditions: GST fusion on glutathione-agarose, 4 °C, pH 8.1, immunoblot
Experimental: as §1, §2

[6] = system: Gαi3; conditions: GBA motif of CALNUC; cited from earlier work
Text: The disordered nature of GIV-CT is intrinsic and not a consequence of the truncation of the protein at residue 1,660 since disorder is predicted for the C-terminal 330 residues of the GIV sequence, and larger fragments of GIV can also recapitulate G-protein binding and/or activation in a GBA motif-dependent manner. The ...

Molecule | binding to Gαi3-[GDP] [1] | binding to Gαi3-[ ] [2] | effect of removal of the C terminus of Gα [3] | co-immunoprecipitation with nucleotide-free-mimicking mutant compared with WT [4] | binding to Gαi3-[GTP] [5] | Gαi3 binding, calcium dependence [6]
B1 | weaker binding | binds preferentially | abrogates | binds more | dissociation | –
B2 | – | – | – | – | – | only when the protein is not calcium-bound
B3 | not to Gαi3-[GDP] | – | – | – | binds exclusively | –
